Consider one molecule from paper PMC8052441, “Structural insight into the molecular mechanism of p53-mediated mitochondrial apoptosis” (Nature Communications, 2021).

In assay [1] the target is T1, p53-DT (human p53 DBD and tetramerization domain, amino acids 92-360) (human, UniProt P04637 92-360).
T1 construct: human p53, DBD and tetramerization domain, amino acids 92-360; Tetramer in solution by gel filtration and cross-linking; also called wild-type p53-DT; not shown: His6, N-terminal, cleaved
The assay is described as follows: ITC; p53 protein (100 µM) titrated into 10–30 µM BCL-xL or BCL-2; 25 °C; 50 mM Tris pH 7.0, 40 mM NaCl, 1 mM TCEP. Particulars: both partners purified.

Assay [2] addresses T2, p53-DBD (human p53 DNA-binding domain, amino acids 92-292) (human, UniProt P04637 92-292).
T2 construct: Cloned into pMAL-c5x; In the crystal (PDB 6LHD) this stretch stood fused to BCL-xL; the rows of the structure use m1 and m3 for the two halves; also called p53-A; p53-B; source: E. coli BL21 (DE3), purified (amylose, PreScission, Mono S)
The assay is described as above. Particulars: both partners purified.

T2 sequence (P04637 92-292): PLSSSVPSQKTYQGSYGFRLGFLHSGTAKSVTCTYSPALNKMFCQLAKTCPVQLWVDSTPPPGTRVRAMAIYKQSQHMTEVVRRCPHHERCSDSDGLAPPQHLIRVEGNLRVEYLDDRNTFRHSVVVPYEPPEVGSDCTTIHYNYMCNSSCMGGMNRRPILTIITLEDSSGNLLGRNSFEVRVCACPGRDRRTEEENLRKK
T1 sequence (P04637 92-360): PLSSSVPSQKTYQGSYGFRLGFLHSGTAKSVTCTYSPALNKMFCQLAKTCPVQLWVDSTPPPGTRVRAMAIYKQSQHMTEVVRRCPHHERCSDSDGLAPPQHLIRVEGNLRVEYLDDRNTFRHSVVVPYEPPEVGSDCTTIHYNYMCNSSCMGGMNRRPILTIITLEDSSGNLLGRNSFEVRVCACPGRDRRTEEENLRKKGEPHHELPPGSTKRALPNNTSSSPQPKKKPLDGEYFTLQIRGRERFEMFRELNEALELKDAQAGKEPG

B1: BCL-xL (human, lacking the α1-α2 loop 45-84 and the 22 C-terminal residues), His-tagged (domain or fragment, UniProt Q07817-1 1-211, looked up)
chain: MSQSNRELVVDFLSYKLSQKGYSWSQFSDVEENRTEAPEGTESEAVKQALREAGDEFELRYRRAFSDLTSQLHITPGTAYQSFEQVVNELFRDGVNWGRIVAFFSFGGALCVESVDKEMQVLVSRIAAWMATYLNDHLEPWIQENGGWDTFVELYGNNAAAESRKGQERFN
notes: human BCL-xL lacking the disordered α1-α2 loop (amino acids 45-84) and the 22 C-terminal residues (transmembrane region); Cloned into pET-28a; also called BCL-xL-C; BCL-xL-D
On to B1, for which the values for the Kd in assay [1] and in assay [2] were 4.1 µM and 37.4 µM, respectively.
